Test results reported in US20180086841A1 (Merck Sharp & Dohme, published 2018).
Substitutions are numbered along the chain they refer to.

How the values were obtained:
Experiment in all cases: flow cytometry on CHO-K1 transfectants, right sub-column, cell hatched (loss of binding)
H36A = molecular target: T1, H36A
T1 construct: also called hCD27 H36A
T1 receptor chain: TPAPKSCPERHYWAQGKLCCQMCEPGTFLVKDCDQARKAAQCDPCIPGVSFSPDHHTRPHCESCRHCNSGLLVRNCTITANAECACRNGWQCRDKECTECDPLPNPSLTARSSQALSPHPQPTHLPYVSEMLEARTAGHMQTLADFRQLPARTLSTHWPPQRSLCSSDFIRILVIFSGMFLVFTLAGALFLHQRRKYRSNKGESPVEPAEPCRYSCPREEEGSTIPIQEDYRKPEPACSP
Description: (§1) The hCD27 variants that were tested are listed. Amino acids correspond to the UniProt P26842-1 sequence. Amino acids 1-20 constitute the signal peptide. Binding is expressed as the geometric mean of the FITC signal, relative to antibody binding to hCD27, which was set at 100%.
(§2) The ability of several anti-hCD27 antibodies to bind to a series of hCD27 alanine mutants was determined using CHO-K1 cells, transiently transfected pCI-neo empty vector, pCI-neo.hCD27 and several pCI-neo.CD27Ala mutant constructs.
(§3) Detached cells were transferred to 96 wells round-bottomed well plates at approximately 1.2×10⁵ cells/well. After spinning down the cells, discarding the supernatants and re-suspending the cells in the residual volume, the primary antibodies were added and incubated for 30 minutes at 4° C. Cells were washed three times with DPBS/BSA 1%, followed by centrifugation, discarding of the supernatants and re-suspension in the residual volume. […] After washing once, antibody binding was detected using the HTS plate reader (FACS Canto II) and FlowJo software for data analysis. Debris, dead cells and doublets were excluded from the analysis. Binding was expressed as the geometric mean of the FITC signal, relative to antibody binding to hCD27, which was set at 100%.

P8A = molecular target: T2, P8A
T2 construct: also called hCD27 P8A
T2 receptor chain: T1 receptor chain with P8A, A36H
Description: as §1, §2, §3

R37A = molecular target: T3, R37A
T3 construct: also called hCD27 R37A
T3 receptor chain: T1 receptor chain with A36H, R37A
Description: as §1, §2, §3

B1: hCD27.131A (mouse parental 131A) (antibody, mouse IgG1, V domains shown)
VH: QIQLVQSGPELKKPGETVKISCKASGYTFTNYGMNWVKQAPGKGLKWMGWINTNTGEPTYAEEFKGRFAFSLETSATTAYLQINNLKNEDTATYFCAREGDAMDYWGQGTSVTVSS
VL: QIVLTQSPAIMSASPGEKVTMTCSASSSVSYMHWYQQKSGTSPKRWIYDTSKLASGVPARFSGSGSGTSYSLTISSMEAEDAATYYCQQWNSYPFTFGSGTKLEIK
notes: Mouse IgG1 antibody; also called mouse hCD27.131A
H36A
  binding, WT hCD27 = 100 (GM FITC): 10.8%
P8A
  binding, WT hCD27 = 100 (GM FITC): 15.9%
R37A
  binding, WT hCD27 = 100 (GM FITC): 9.6%
